System: LMWK (natural substrate of KLK1)

Sequence of PEG-Kb (pancreatic kallikrein I for injection, PEG10K-modified Kb) (chain, as listed by the source): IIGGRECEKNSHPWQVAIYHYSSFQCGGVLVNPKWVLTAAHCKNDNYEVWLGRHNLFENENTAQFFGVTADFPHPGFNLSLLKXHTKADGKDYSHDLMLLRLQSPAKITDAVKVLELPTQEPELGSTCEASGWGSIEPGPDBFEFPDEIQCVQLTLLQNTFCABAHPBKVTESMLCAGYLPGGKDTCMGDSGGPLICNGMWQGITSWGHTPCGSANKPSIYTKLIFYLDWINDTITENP
Sequence of Kb (KLK1 extracted from porcine pancreas) (chain, as listed by the source): as above

“Kb (KLK1 extracted from porcine pancreas)” showed a Bradykinin production µg/mg(enzyme), molar ratio of substrate to enzyme 1:1 (µg/mg(enzyme)) of 20.9, a Bradykinin production µg/mg(enzyme), molar ratio of substrate to enzyme 5:1 (µg/mg(enzyme)) of 90.8 and a Bradykinin production µg/mg(enzyme), molar ratio of substrate to enzyme 10:1 (µg/mg(enzyme)) of 166. For the same substance, the Bradykinin production µg/mg(enzyme), molar ratio of substrate to enzyme 15:1 (µg/mg(enzyme)) was 218 and the Bradykinin production µg/mg(enzyme), molar ratio of substrate to enzyme 20:1 (µg/mg(enzyme)) was 288.
“PEG-Kb (pancreatic kallikrein I for injection, PEG10K-modified Kb)” gave a Bradykinin production µg/mg(enzyme), molar ratio of substrate to enzyme 1:1 (µg/mg(enzyme)) of 11.3, a Bradykinin production µg/mg(enzyme), molar ratio of substrate to enzyme 5:1 (µg/mg(enzyme)) of 44.6 and a Bradykinin production µg/mg(enzyme), molar ratio of substrate to enzyme 10:1 (µg/mg(enzyme)) of 80. It also gave a Bradykinin production µg/mg(enzyme), molar ratio of substrate to enzyme 15:1 (µg/mg(enzyme)) of 104 and a Bradykinin production µg/mg(enzyme), molar ratio of substrate to enzyme 20:1 (µg/mg(enzyme)) of 120.
